This passage reports binding result and EC50 results from patent US20200247897A1 (Genmab, published 2020).

One test addresses T1, murine DR5 (mouse (Mus musculus), UniProt Q9QZM4 53-381).
T1 construct: also called mouse DR5
Description: flow cytometry on transfected CHO cells.

The target of test [1] is T2, cynomolgus monkey DR5 protein with deletion of amino acids 185-213 and death domain loss-of-function mutation … (cynomolgus monkey (Macaca fascicularis)).
T2 construct: also called Cyno DR5Mfdel-K420N
T2 chain: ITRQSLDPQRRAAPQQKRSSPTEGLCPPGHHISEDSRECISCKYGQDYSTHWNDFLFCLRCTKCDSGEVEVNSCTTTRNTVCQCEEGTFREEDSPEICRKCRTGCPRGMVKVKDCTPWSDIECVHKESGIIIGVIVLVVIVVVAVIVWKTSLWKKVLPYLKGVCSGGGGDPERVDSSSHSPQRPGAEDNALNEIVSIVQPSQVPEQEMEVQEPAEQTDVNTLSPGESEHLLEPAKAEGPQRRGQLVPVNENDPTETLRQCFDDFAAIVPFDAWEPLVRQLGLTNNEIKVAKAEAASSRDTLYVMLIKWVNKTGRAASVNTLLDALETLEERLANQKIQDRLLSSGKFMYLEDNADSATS
The test is described as follows: flow cytometry on cynomolgus DR5-transfected CHO cells; four experiments. Background: In flow cytometry, cells or beads pass a laser one at a time.

In test [2] the target is T3, human DR5 (death receptor 5) on DR5-positive human colon cancer cells (human, UniProt O14763 56-440).
T3 construct: Endogenous receptor of the cell lines; also called CD262; TRAILR2
The test is described as follows: flow cytometry on HCT 116 cells.

T1 sequence (Q9QZM4 53-381 limits assumed): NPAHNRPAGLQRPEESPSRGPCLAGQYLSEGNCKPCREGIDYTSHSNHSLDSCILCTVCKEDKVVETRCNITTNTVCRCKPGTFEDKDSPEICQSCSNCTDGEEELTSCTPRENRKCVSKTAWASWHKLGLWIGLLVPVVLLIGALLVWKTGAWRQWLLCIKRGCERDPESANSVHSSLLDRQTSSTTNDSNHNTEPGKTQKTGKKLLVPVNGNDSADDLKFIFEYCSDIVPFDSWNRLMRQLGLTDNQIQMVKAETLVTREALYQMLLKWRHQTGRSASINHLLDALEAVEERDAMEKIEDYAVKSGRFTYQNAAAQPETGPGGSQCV

B1: IgG1-hDR5-05-F405L (antibody, name in EU numbering)
heavy: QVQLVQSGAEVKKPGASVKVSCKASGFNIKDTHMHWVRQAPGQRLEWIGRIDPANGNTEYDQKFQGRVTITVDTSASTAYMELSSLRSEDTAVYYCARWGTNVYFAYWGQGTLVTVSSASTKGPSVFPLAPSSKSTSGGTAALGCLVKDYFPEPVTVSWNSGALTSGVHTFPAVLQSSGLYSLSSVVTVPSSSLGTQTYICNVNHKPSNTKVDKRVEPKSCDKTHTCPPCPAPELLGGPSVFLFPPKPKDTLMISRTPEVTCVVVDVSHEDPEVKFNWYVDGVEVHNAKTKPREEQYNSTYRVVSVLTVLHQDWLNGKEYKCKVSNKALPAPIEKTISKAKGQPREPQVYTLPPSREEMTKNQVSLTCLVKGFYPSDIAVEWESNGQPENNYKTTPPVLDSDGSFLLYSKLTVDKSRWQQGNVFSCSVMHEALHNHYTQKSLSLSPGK
light: DIQLTQSPSSLSASVGDRVTITCSASSSVSYMYWYQQKPGKAPKPWIYRTSNLASGVPSRFSGSGSGTDFTLTISSLQPEDFATYYCQQYHSYPPTFGGGTKVEIKRTVAAPSVFIFPPSDEQLKSGTASVVCLLNNFYPREAKVQWKVDNALQSGNSQESVTEQDSKDSTYSLSSTLTLSKADYEKHKVYACEVTHQGLSSPVTKSFNRGEC
notes: Expressed as IgG1,kappa; also called humanized DR5-05
As for B1, in the test with murine DR5, the binding result is given as “no binding (tested: 10 µg/mL)”.

B2: IgG1-hDR5-05-E430G (antibody)
heavy: not shown
light: DIQLTQSPSSLSASVGDRVTITCSASSSVSYMYWYQQKPGKAPKPWIYRTSNLASGVPSRFSGSGSGTDFTLTISSLQPEDFATYYCQQYHSYPPTFGGGTKVEIKRTVAAPSVFIFPPSDEQLKSGTASVVCLLNNFYPREAKVQWKVDNALQSGNSQESVTEQDSKDSTYSLSSTLTLSKADYEKHKVYACEVTHQGLSSPVTKSFNRGEC
In test [1], B2 registered an EC50 of 0.17 µg/mL.

B3: IgG1-hDR5-05-N55D-F405L (antibody, V domains shown)
VH: QVQLVQSGAEVKKPGASVKVSCKASGFNIKDTHMHWVRQAPGQRLEWIGRIDPADGNTEYDQKFQGRVTITVDTSASTAYMELSSLRSEDTAVYYCARWGTNVYFAYWGQGTLVTVSS
VL: DIQLTQSPSSLSASVGDRVTITCSASSSVSYMYWYQQKPGKAPKPWIYRTSNLASGVPSRFSGSGSGTDFTLTISSLQPEDFATYYCQQYHSYPPTFGGGTKVEIKR
Consider B3, for which the binding result in test [2] is reported as “binds”.

What is called EC50 is the concentration needed to bring the measured effect to its halfway point.
